Assay results reported in patent US7521047 (GPC BIOTECH, dated 2009).

T1: human MHC class II DR protein (DRA*0101/DRB1*0401), purified from PRIESS cells (human, UniProt P01903 26-254; P01911 30-266, limits assumed)
T1 construct: mature; also called HLA-DR protein; MHCII
T1 MHC II alpha: not shown
T1 MHC II beta: not shown

T2: HLA-DR (DRA*0101/DRB1*0401) on PRIESS cells (human, UniProt P01903 26-254; P01911 30-266)
T2 MHC II alpha: not shown
T2 MHC II beta: not shown


How the values were obtained:
[1] = target: T1, human MHC class II DR protein …; assay: SPR (BIAcore), MHCII on CM5 chip
[2] = target: T1, human MHC class II DR protein …; assay: SPR (BIAcore), chip density 4000 RU MHCII
[3] = target: chimeric 0401-IE class II molecule on cells of transgenic mice (human/murine chimera); assay: cell-based or functional assay
[4] = target: T1, human MHC class II DR protein …; assay: SPR (BIAcore), MHCII on CM5 chip
[5] = target: T2, HLA-DR (DRA*0101/DRB1*0401) on PRIESS …; assay: cell-based or functional assay
[6] = target: T1, human MHC class II DR protein …; assay: ELISA, coated antigen, Fab 100 ng/well, read at 370 nm
Protocol: After washing in PBS the anti-human IgG F(ab')_2-peroxidase-conjugate at a 1:10,000 dilution in TBS (supplemented with 5% w/v non-fat drymilk/0.05% v/v Tween 20) was added to each well for 1 h. Final washes were carried out in PBS followed the addition the substrate POD (Roche).

| Kd [1] | koff [1] | kon [1] | IC50 of inhibition of IL-2 secretion from T-Hyb 1 cells [3] | Maximum inhibition(%) of IL-2 secretion [3] | Kd [4] | koff [4] | kon [4] | Binder | also measured |
| --- | --- | --- | --- | --- | --- | --- | --- | --- | --- |
| 108 nM | 0.0209 s⁻¹ | 193000 M⁻¹ s⁻¹ | – | – | – | – | – | MS-GPC-8-1 Fab (Fab, V domains shown, Fab: VH-CH1 with FLAG tag and STREP tag II, VL-CL; VH residue 1 is Q in Fab) VH: QVQLKESGPALVKPTQTLTLTCTFSGFSLSTSGVGVGWIRQPPGKALEWLALIDWDDDKYYSTSLKTRLTISKDTSKNQVVLTMTNMDPVDTATYYCARSPRYRGAFDYWGQGTLVTVSS VL: DIVLTQPPSVSGAPGQRVTISCSGSSSNIGSNYVSWYQQLPGTAPKLLIYDNNQRPSGVPDRFSGSKSGTSASLAITGLQSEDEADYYCQSYDFSHYVFGGGTKLTVLG | Kd [2]: 108 nM; koff [2]: 0.0209 s⁻¹; kon [2]: 193000 M⁻¹ s⁻¹ |
| – | – | – | 3.6 nM | 100% | – | – | – | MS-GPC-8-6-2 IgG (antibody, V domains shown) VH: QVQLKESGPALVKPTQTLTLTCTFSGFSLSTSGVGVGWIRQPPGKALEWLALIDWDDDKYYSTSLKTRLTISKDTSKNQVVLTMTNMDPVDTATYYCARSPRYRGAFDYWGQGTLVTVSS VL: DIVLTQPPSVSGAPGQRVTISCSGSESNIGSNYVHWYQQLPGTAPKLLIYDNNQRPSGVPDRFSGSKSGTSASLAITGLQSEDEADYYCQSYDYDHYVFGGGTKLTVLG | – |
| – | – | – | 6.7 nM | 100% | – | – | – | MS-GPC-8-6 IgG (antibody, V domains shown) VH: QVQLKESGPALVKPTQTLTLTCTFSGFSLSTSGVGVGWIRQPPGKALEWLALIDWDDDKYYSTSLKTRLTISKDTSKNQVVLTMTNMDPVDTATYYCARSPRYRGAFDYWGQGTLVTVSS VL: DIVLTQPPSVSGAPGQRVTISCSGSSSNIGSNYVSWYQQLPGTAPKLLIYDNNQRPSGVPDRFSGSKSGTSASLAITGLQSEDEADYYCQSYDYDHYVFGGGTKLTVLG | – |
| 8.63 nM | 0.00103 s⁻¹ | 120000 M⁻¹ s⁻¹ | – | – | 8.6 nM | 0.00103 s⁻¹ | 120000 M⁻¹ s⁻¹ | MS-GPC-8-6-45 Fab (Fab, V domains shown, Fab: VH-CH1 with FLAG tag and STREP tag II, VL-CL; VH residue 1 is Q in Fab) VH: QVQLKESGPALVKPTQTLTLTCTFSGFSLSTSGVGVGWIRQPPGKALEWLALIDWDDDKYYSTSLKTRLTISKDTSKNQVVLTMTNMDPVDTATYYCARSPRYRGAFDYWGQGTLVTVSS VL: DIVLTQPPSVSGAPGQRVTISCSGSEPNIGSNYVFWYQQLPGTAPKLLIYDNNQRPSGVPDRFSGSKSGTSASLAITGLQSEDEADYYCQSYDYDHYVFGGGTKLTVLG | – |
| 8.74 nM | 0.00096 s⁻¹ | 110000 M⁻¹ s⁻¹ | 5.3 nM (half the concentration of the Fab) | 100% | 9 nM | 0.001 s⁻¹ | 110000 M⁻¹ s⁻¹ | MS-GPC-8-6-19 Fab (Fab, V domains shown, Fab: VH-CH1 with FLAG tag and STREP tag II, VL-CL; VH residue 1 is Q in Fab) VH: QVQLKESGPALVKPTQTLTLTCTFSGFSLSTSGVGVGWIRQPPGKALEWLALIDWDDDKYYSTSLKTRLTISKDTSKNQVVLTMTNMDPVDTATYYCARSPRYRGAFDYWGQGTLVTVSS VL: DIVLTQPPSVSGAPGQRVTISCSGSESNIGSNYVAWYQQLPGTAPKLLIYDNNQRPSGVPDRFSGSKSGTSASLAITGLQSEDEADYYCQSYDYDHYVFGGGTKLTVLG | – |
| 7.61 nM | 0.00094 s⁻¹ | 123000 M⁻¹ s⁻¹ | 4.7 nM (half the concentration of the Fab) | 100% | 7.6 nM | 0.00094 s⁻¹ | 120000 M⁻¹ s⁻¹ | MS-GPC-8-6-2 Fab (Fab, V domains shown, Fab: VH-CH1 with FLAG tag and STREP tag II, VL-CL; VH residue 1 is Q in Fab) VH: QVQLKESGPALVKPTQTLTLTCTFSGFSLSTSGVGVGWIRQPPGKALEWLALIDWDDDKYYSTSLKTRLTISKDTSKNQVVLTMTNMDPVDTATYYCARSPRYRGAFDYWGQGTLVTVSS VL: DIVLTQPPSVSGAPGQRVTISCSGSESNIGSNYVHWYQQLPGTAPKLLIYDNNQRPSGVPDRFSGSKSGTSASLAITGLQSEDEADYYCQSYDYDHYVFGGGTKLTVLG | EC50 of cell killing, cross-linked Fab, bivalent agent [5]: 8 nM |
| – | – | – | 2.1 nM (half the concentration of the Fab) | 100% | 3 nM | 0.00055 s⁻¹ | 190000 M⁻¹ s⁻¹ | MS-GPC-8-6-13 Fab (Fab, V domains shown, Fab: VH-CH1 with FLAG tag and STREP tag II, VL-CL; VH residue 1 is Q in Fab; also called 305D3) VH: QVQLKESGPALVKPTQTLTLTCTFSGFSLSTSGVGVGWIRQPPGKALEWLALIDWDDDKYYSTSLKTRLTISKDTSKNQVVLTMTNMDPVDTATYYCARSPRYRGAFDYWGQGTLVTVSS VL: DIVLTQPPSVSGAPGQRVTISCSGSESNIGANYVTWYQQLPGTAPKLLIYDNNQRPSGVPDRFSGSKSGTSASLAITGLQSEDEADYYCQSYDYDHYVFGGGTKLTVLG | ELISA signal [6]: 1.47 |
| 90.1 nM | 0.0166 s⁻¹ | 185000 M⁻¹ s⁻¹ | – | – | – | – | – | MS-GPC-8-9 Fab (Fab, V domains shown, Fab: VH-CH1 with FLAG tag and STREP tag II, VL-CL; VH residue 1 is Q in Fab) VH: QVQLKESGPALVKPTQTLTLTCTFSGFSLSTSGVGVGWIRQPPGKALEWLALIDWDDDKYYSTSLKTRLTISKDTSKNQVVLTMTNMDPVDTATYYCARSPRYRGAFDYWGQGTLVTVSS VL: DIVLTQPPSVSGAPGQRVTISCSGSSSNIGSNYVSWYQQLPGTAPKLLIYDNNQRPSGVPDRFSGSKSGTSASLAITGLQSEDEADYYCQSYDIQLHVFGGGTKLTVLG | Kd [2]: 90.1 nM; koff [2]: 0.0166 s⁻¹; kon [2]: 185000 M⁻¹ s⁻¹ |
| – | 0.007 s⁻¹ | – | – | – | – | – | – | MS-GPC-8-10 Fab (Fab, V domains shown, Fab: VH-CH1 with FLAG tag and STREP tag II, VL-CL; VH residue 1 is Q in Fab) VH: QVQLKESGPALVKPTQTLTLTCTFSGFSLSTSGVGVGWIRQPPGKALEWLALIDWDDDKYYSTSLKTRLTISKDTSKNQVVLTMTNMDPVDTATYYCARSPRYRGAFDYWGQGTLVTVSS VL: DIVLTQPPSVSGAPGQRVTISCSGSSSNIGSNYVSWYQQLPGTAPKLLIYDNNQRPSGVPDRFSGSKSGTSASLAITGLQSEDEADYYCQSYDLIRHVFGGGTKLTVLG | – |
| 3.3 nM | 0.00057 s⁻¹ | 174000 M⁻¹ s⁻¹ | 5.9 nM (half the concentration of the Fab) | 100% | 3.3 nM | 0.00057 s⁻¹ | 170000 M⁻¹ s⁻¹ | MS-GPC-8-27-7 Fab (Fab, V domains shown, Fab: VH-CH1 with FLAG tag and STREP tag II, VL-CL; VH residue 1 is Q in Fab) VH: QVQLKESGPALVKPTQTLTLTCTFSGFSLSTSGVGVGWIRQPPGKALEWLALIDWDDDKYYSTSLKTRLTISKDTSKNQVVLTMTNMDPVDTATYYCARSPRYRGAFDYWGQGTLVTVSS VL: DIVLTQPPSVSGAPGQRVTISCSGSESNIGNNYVGWYQQLPGTAPKLLIYDNNQRPSGVPDRFSGSKSGTSASLAITGLQSEDEADYYCQSYDMNVHVFGGGTKLTVLG | ELISA signal [6]: 1.55 |
| – | 0.0066 s⁻¹ | – | – | – | – | – | – | MS-GPC-8-27 Fab (Fab, V domains shown, Fab: VH-CH1 with FLAG tag and STREP tag II, VL-CL; VH residue 1 is Q in Fab) VH: QVQLKESGPALVKPTQTLTLTCTFSGFSLSTSGVGVGWIRQPPGKALEWLALIDWDDDKYYSTSLKTRLTISKDTSKNQVVLTMTNMDPVDTATYYCARSPRYRGAFDYWGQGTLVTVSS VL: DIVLTQPPSVSGAPGQRVTISCSGSSSNIGSNYVSWYQQLPGTAPKLLIYDNNQRPSGVPDRFSGSKSGTSASLAITGLQSEDEADYYCQSYDMNVHVFGGGTKLTVLG | – |
| 78.3 nM | 0.0083 s⁻¹ | 106000 M⁻¹ s⁻¹ | – | – | – | – | – | MS-GPC-8-18 Fab (Fab, V domains shown, Fab: VH-CH1 with FLAG tag and STREP tag II, VL-CL; VH residue 1 is Q in Fab) VH: QVQLKESGPALVKPTQTLTLTCTFSGFSLSTSGVGVGWIRQPPGKALEWLALIDWDDDKYYSTSLKTRLTISKDTSKNQVVLTMTNMDPVDTATYYCARSPRYRGAFDYWGQGTLVTVSS VL: DIVLTQPPSVSGAPGQRVTISCSGSSSNIGSNYVSWYQQLPGTAPKLLIYDNNQRPSGVPDRFSGSKSGTSASLAITGLQSEDEADYYCQSYDFSIYVFGGGTKLTVLG | Kd [2]: 78.3 nM; koff [2]: 0.0083 s⁻¹; kon [2]: 106000 M⁻¹ s⁻¹ |
| – | – | – | – | – | – | – | – | L243 (antibody, V domains shown) VH: QIQLVQSGPELKKPGETVKISCKASGFTFTNYGMNWVKQAPGKGLKWMGWINTYTREPTYADDFKGRFAFSLETSASTAYLQINNLKNEDTAKYFCARDITAVVPTGFDYWGQGTTLTVSS VL: DIQMTQSPASLSVSVGETVTITCRASENIYSNLAWYRQKQGKSPQLLVFAASNLADGVPSRFSGSGSGTQYSLKINSLQSEDFGDYYCQHFWTTPWAFGGGTNLEIK | EC50 of cell killing, mIgG [5]: 47 nM |
